Data: patent publication CN1930187A

Legend:
[1] = biological target: T1, Pep-3, NH2-…-OH (MW 1590 Da) (human); experiment: SPR (Biacore 2000), mAb immobilised, pep-3 injected
T1 sequence (peptide): LEEKKGNYVVTDHG

[2] = biological target: T1, Pep-3, NH2-…-OH (MW 1590 Da) (human); experiment: SPR (Biacore 2000), mAb immobilised, pep-3 injected, 1:1 model
[3] = biological target: EGFRvIII-rabbit Fc fusion protein (EGFRvIII-RbFc) (human; rabbit) (UniProt P00533); experiment: ELISA, transfection supernatant titrated on EGFRvIII-Rab Ig Fc coat

B1: AB-EGFRvIII-XG1-095 (antibody, human IgG1, V domains shown)
VH: QVQLQESGPFLVKPSQTLSLTCTVSGGSISSGGYYWSWIRQHPGKGLEWIGFIYYRGNTYYNPSLKSRVTISVDTSKNQFSLKLSSVTAADTAVYYCARDGYCSRTGCYGGWFDPWGQGTLVTVSP
VL: DIVMTQTPLSSPVTLGQPASISCRSSQSLIHTDGNIYLSWLQQRPGQPPRLLIYKISNRFSGVPDRFSGSGAGTDFTLKISRVEAEDVGVYYCMQGTQFPITFGQGTRLEIK
Kd [1]: 66 nM
koff [1]: 0.0099 s⁻¹
kon [1]: 149000 M⁻¹ s⁻¹
koff [2]: 0.00993 s⁻¹
kon [2]: 149000 M⁻¹ s⁻¹

B2: SC-EGFRvIII-XG1-123/124 (antibody, human IgG1, V domains shown)
VH: QVQLVESGGGVVQPGRSLRLSCAASGFTLSSYGMHWVRQAPGKGLEWVAVMSYDGSKEDYADSVKGRFTISRDNSENTLYLQMNSLRAEDTAVYYCVSEGYCSSRSCYKYYYYGMDVWGQGTTVTVSS
VL: DIVMTQSPLSLPVTPGEPASISCRSSQSLLYRNGNNYLDWYLQKPGQSPQLLIYLGSNRASGVPDRFSGSGSGTDFTLNISRVEAEDVGHYYCMQALQTPRTFGQGTKVEIK
titre, antigen binding (抗原结合) (titre (1:x dilution)) [3]: > 64

B3: SC-EGFRvIII-XG1-211 (antibody, human IgG1, V domains shown)
VH: QVQLVESGGGVVQPGRSLRLSCVASGFTLSSYGMHWVRQAPGKGLEWVAVTSYDGSKKDYADSAKGRFTISRDNSKNTLYLQMNSLRAEDTAVYYCVSEGYCSSSSCYKYYYYGMDVWGQGTTVTVSS
VL: DIVMTQSPLSLPVTPGEPASISCRSSQSLLYRNGNNYLDWYLQRPGQSPQLLIYLGSNRASGVPDRFSGSGSGTDFTLKISRVEAEDVGVYYCMQALQTPRTFGQGTKVEIK
titre, antigen binding (抗原结合) (titre (1:x dilution)) [3]: > 64

B4: SC-EGFRvIII-XG1-333 (antibody, human IgG1, V domains shown)
VH: QVQLVESGGGVVQPGRSLRLSCVASGFTLSSYGMHWVRQALGKGLEWVAVTSYDGSKKDYADSVKGRFTISRDNSKNTLYLQMNSLRAEDTAVYYCVSEGYCDSTSCYKYYYYGMDVWGQGTTVTVSS
VL: DIVMTQSPLSLPVTPGEPASISCRSSQSLLYRNGNNYLDWYLQRPGQSPQLLIYLGSNRASGVPDRFSGSGSGTDFTLKISRVEAEDVGVYYCMQALQTPRTFGQGTKVEIK
titre, antigen binding (抗原结合) (titre (1:x dilution)) [3]: > 64

B5: SC-EGFRvIII-XG1-342 (antibody, human IgG1, V domains shown)
VH: QVQLVESGGGVVQPGRSLRLSCVASGFTLSSYGMHWVRQAPGKGLEWVAVTSYDGSKKDYADSVKGRFTISRDNSKNTLYLQMNSLRAEDTAVYYCVSEGYCDSTSCYKYYYYGMDVWGQGTTVTVSS
VL: DIVMTQSPLSLPVTPGEPASISCRSSQSLLYRNGNNYLDWYLQRPGQSPQLLIYLGSNRASGVPDRFSGSGSGTDFTLKISRVEAEDVGVYYCMQALQTPRTFGQGTKVEIK
titre, antigen binding (抗原结合) (titre (1:x dilution)) [3]: > 64

B6: SC-EGFRvIII-XG1-318 (antibody, human IgG1, V domains shown)
VH: QVQLVESGGGVVQPGRSLRLSCVASGFTLSSYGMHWVRQAPGKGLEWVAVTSYDGSKKDYADSVKGRFTISRDNSKNTLYLQMNSLRAEDTAVYYCVSEGYCDSSSCYKYYYYGMDVWGQGTTVTVSS
VL: DIVMTQSPLSLPVTPGEPASISCRSSQSLLYRNGNNYLDWYLQRPGQSPQLLIYLGSNRASGVPDRFSGSGSGTDFTLKISRVEAEDVGVYYCMQALQTPRTFGQGTKVEIK
titre, antigen binding (抗原结合) (titre (1:x dilution)) [3]: 64

B7: SC-EGFRvIII-XG2-170 (antibody, human IgG1, V domains shown)
VH: QVQLQQSGPGLVKPSQTLSLTCAISGDSVSSNNAAWNWIRQSPARGLEWLGRTYYRSKWYNDYVVSVKSRITINPDTSKNQFSLQLNSVTPEDTAVYYCVRATAFDYWGQGTLVTVSS
VL: AIVLTQTPLSSPVTLGQPASISCRSSQSLVHRDGNTYLSWLQQRPGQPPRLLIYKISNRFSGVPDRFSGSGAGTDFTLKISRVEPDDVGVYYCMHTTQLPWTFGQGTKVEIK
titre, antigen binding (抗原结合) (titre (1:x dilution)) [3]: > 64

B8: SC-EGFRvIII-XG2-150 (antibody, human IgG1, V domains shown)
VH: QVQLQQSGPGLVKPSQTLSLTCAISGDSVSSYSSAWNWIRQSPSRGLEWLGRAYHRSRWYYEYAVSVKSRINITPDTSKNQFSLQLNSVTPEDTAVYYCARGSRFDYWGQGTLVTVSS
VL: DIVMTQTPLSSPVTLGQPASISCRSSQSLVHRDGNTYLSWLQQRPGQPPRLLIYKISNRFSGVPDRFSGSGAGTDFTLKISRVEAEDVGIYFCMHTTQFPWTFGQGTRVEIK
titre, antigen binding (抗原结合) (titre (1:x dilution)) [3]: > 64

B9: SC-EGFRvIII-XG1-250 (antibody, human IgG1, V domains shown)
VH: EGQLLESGGGWVQPGESLRLSCAASGFTFSSYAMSWVRQAPGKGLEWVSAISGSGGSTNYADSVKGRFTISRDNSKNTLYLQVNSLRVEDTAVYYCAGSSGWSEYWGQGTLVTVSS
VL: DIQMTQSPSSLSASVGDSVTITCRTSQGIRKNLGWYQQKPGKAPKRLIYAASSLQSGVPSRFSGSGSGTEFTLTISRLQPEDFATYYCLQHHSYPLTFGGGTRVEIR
titre, antigen binding (抗原结合) (titre (1:x dilution)) [3]: > 64

B10: SC-EGFRvIII-XG1-139 (antibody, human IgG1, V domains shown)
VH: EVQVLESGGGLVQPGGSLRLSCAASGFTFSSYAMSWVRQAPGKGLEWVSAISGSGGSTNYADSVKGRFTISRDNSKNTLYLQMNSLRAEDTAVYYCAGSSGWSEYWGQGTLVTVSS
VL: DIQMTQSPSSLSASVGDRVTITCRASQGIRNNLAWYQQKPGKAPKRLIYAASNLQSGVPSRFTGSGSGTEFTLIVSSLQPEDFATYYCLQHHSYPLTSGGGTKVEIK
Kd [1]: 290 nM
koff [1]: 0.00298 s⁻¹
kon [1]: 10300 M⁻¹ s⁻¹
koff [2]: 0.00298 s⁻¹
kon [2]: 10300 M⁻¹ s⁻¹
titre, antigen binding (抗原结合) (titre (1:x dilution)) [3]: > 64
